Measured values: article PMC9292375, “Structural basis of an epitope tagging system derived from Haloarcula marismortui bacteriorhodopsin I D94N and its monoclonal antibody GD‐26” (The Febs Journal, 2021)
Values joined by “and” are separate entries in the source; they are usually repeats but may differ in a detail not shown here. Equal values may be shown once.

How the values were obtained:
Assay in all cases: ITC; synthetic peptide in the syringe titrated into GD-26 Fab or GD-26 IgG (10 μM) in the cell; 25 °C; 50 mM Tris, 150 mM NaCl, pH 7.5; one-set-of-sites model
Conditions in all cases: both partners purified
[1] = molecular target: T1, TD peptide (GTGATPADD), peptide V from the C terminus of HmBRI D94N (Haloarcula marismortui HmBRI C terminus …)
T1 construct: nine residues at the C terminus of Haloarcula marismortui bacteriorhodopsin I (HmBRI); residue numbers 1-9 count on: the TD peptide; also called TD tag; wild-type TD peptide; source: synthetic peptide
T1 chain: GTGATPADD

[2] = molecular target: T2, TD peptide A7W (A7W (stands in the printed letters))
T2 construct: TD peptide (C terminus of HmBRI) with A7W; numbers count on: the TD peptide; source: synthetic peptide
T2 chain: GTGATPWDD

[3] = molecular target: T3, TD peptide A7Q (A7Q (stands in the printed letters))
T3 construct: TD peptide (C terminus of HmBRI) with A7Q; numbers count on: the TD peptide; source: synthetic peptide
T3 chain: GTGATPQDD

[4] = molecular target: T4, TD peptide A7S (A7S (stands in the printed letters))
T4 construct: TD peptide (C terminus of HmBRI) with A7S; numbers count on: the TD peptide; source: synthetic peptide
T4 chain: GTGATPSDD

[5] = molecular target: T5, TD peptide A7Y (A7Y (stands in the printed letters))
T5 construct: TD peptide (C terminus of HmBRI) with A7Y; numbers count on: the TD peptide; source: synthetic peptide
T5 chain: GTGATPYDD

[6] = molecular target: T6, TD peptide A7H (A7H (stands in the printed letters))
T6 construct: TD peptide (C terminus of HmBRI) with A7H; numbers count on: the TD peptide; source: synthetic peptide
T6 chain: GTGATPHDD

[7] = molecular target: T7, TD peptide A7P (A7P (stands in the printed letters))
T7 construct: TD peptide (C terminus of HmBRI) with A7P; numbers count on: the TD peptide; source: synthetic peptide
T7 chain: GTGATPPDD

[8] = molecular target: T8, TD peptide P6F (P6F (stands in the printed letters))
T8 construct: TD peptide (C terminus of HmBRI) with P6F; numbers count on: the TD peptide; source: synthetic peptide
T8 chain: GTGATFADD

[9] = molecular target: T9, TD peptide P6G (P6G (stands in the printed letters))
T9 construct: TD peptide (C terminus of HmBRI) with P6G; numbers count on: the TD peptide; source: synthetic peptide
T9 chain: GTGATGADD

[10] = molecular target: T10, TD peptide G1M (G1M (stands in the printed letters))
T10 construct: TD peptide (C terminus of HmBRI) with G1M; numbers count on: the TD peptide; source: synthetic peptide
T10 chain: MTGATPADD

[11] = molecular target: T1, TD peptide (GTGATPADD), peptide V from …
[12] = molecular target: T11, TD peptide D9N (D9N (stands in the printed letters))
T11 construct: TD peptide (C terminus of HmBRI) with D9N; numbers count on: the TD peptide; source: synthetic peptide
T11 chain: GTGATPADN

[13] = molecular target: T12, TD peptide C1 (Asp9 removed) (Haloarcula marismortui (strain ATCC …))
T12 construct: TD peptide residues 1-8 (Asp9 removed); numbers count on: the TD peptide; source: synthetic peptide
T12 chain: GTGATPAD

[14] = molecular target: T13, TD peptide C2 (Asp8 and Asp9 removed) (Haloarcula marismortui (strain ATCC …))
T13 construct: TD peptide residues 1-7 (Asp8 and Asp9 removed); numbers count on: the TD peptide; source: synthetic peptide
T13 chain: GTGATPA

Kd [1]: 19.8 nM and 19.4 nM | dH [1]: -13.4 kcal/mol | stoichiometry N [1]: 0.93 sites | Kd [2]: 34.4 nM | Kd [3]: 59.3 nM | Kd [4]: 72.7 nM | Kd [5]: 73.4 nM | Kd [6]: 94 nM | Kd [7]: 1040 nM | Kd [8]: 78.2 nM | Kd [9]: 892 nM | Kd [10]: 46.5 nM | Kd [11]: 12 nM | Kd [12]: 132 nM | Kd [13]: 273 nM | binding result [14]: no binding
B1: GD-26 Fab (antigen-binding fragment of monoclonal antibody GD-26) (Fab, V domains shown)
VH: QVQLRQSGPELVKPGASVKMSCRASGYTFTNYNIHWVRQRPGQGLEWIGWIYPVDGTTKYNEKFKDKTTLTSDKSSSTAYMSLSGLTSEDSAIYFCARGLDNWGQGTSVTVSS
VL: DVVLTQTPLSLSVTIGQPASISCRSSQRLLYSNGKTYLNWFQQRPGQAPKYLMFQVSKLGPGIPARFSGSGSETDFTLKISRVEAEDLGVYYCFQGTFFPHTFGGGTKLEMK
notes: Fab heavy chain of GD-26; whole chain in PDB 7DOH; light chain of GD-26; the Fab was secreted; source: Expi293F, transient co-transfection, secreted; purified (HisTrap Excel, Superdex 200 gel filtration)
